molecular target: acetylcholine receptor; test: SPR, peptide at 10 uM on acetylcholine receptor

First: KEWEK [5mer-691]
Second: RMTKK [5mer-996]
The Binding affinity (RU) of the first is lower: 16 RU for the first, 32 RU for the second.

Compared with KMNAK [5mer-671], KAWVR [5mer-994] is higher in Binding affinity (RU): 21 RU for the first, 26 RU for the second.

Compared with RAEIK [5mer-690], RAHWR [5mer-987] is higher in Binding affinity (RU): 12 RU for the first, 22 RU for the second.

Going from RDPKR [5mer-985] to KNDKK [5mer-981], the Binding affinity (RU) rises from 17 RU to 33 RU.

First: KMTGK [5mer-971]
Second: RCTAK [5mer-998]
The Binding affinity (RU) of the first is lower: 12 RU for the first, 18 RU for the second.

Going from RHMMR [5mer-974] to KHAPK [5mer-672], the Binding affinity (RU) falls from 26 RU to 12 RU.

RCTAR [5mer-989] and RPHFK [5mer-688] are the same in Binding affinity (RU): 31 RU for the first, 31 RU for the second.

First: KNMIR [5mer-977]
Second: KNAHK [5mer-984]
The Binding affinity (RU) of the first is higher: 16 RU for the first, 11 RU for the second.

First: RYPHR [5mer-997]
Second: KCAER [5mer-684]
The Binding affinity (RU) of the first is higher: 30 RU for the first, 27 RU for the second.

First: KASKK [5mer-697]
Second: KYPDK [5mer-683]
The Binding affinity (RU) of the first is lower: 25 RU for the first, 32 RU for the second.

Compared with RKPGR [5mer-675], RPEFR [5mer-991] is lower in Binding affinity (RU): 31 RU for the first, 24 RU for the second.

First: RFTER [5mer-680]
Second: RFAHK [5mer-975]
The Binding affinity (RU) of the first is higher: 21 RU for the first, 18 RU for the second.

Compared with KYMGR [5mer-678], RISPR [5mer-673] is lower in Binding affinity (RU): 23 RU for the first, 14 RU for the second.

Going from RNDKK [5mer-992] to RYWAR [5mer-973], the Binding affinity (RU) falls from 15 RU to 12 RU.

First: RPSKK [5mer-693]
Second: KFDWK [5mer-698]
The Binding affinity (RU) of the first is higher: 17 RU for the first, 12 RU for the second.

Going from KFTDK [5mer-995] to RFSDK [5mer-689], the Binding affinity (RU) rises from 18 RU to 20 RU.

Compared with RHHMK [5mer-979], KNNAR [5mer-694] is higher in Binding affinity (RU): 23 RU for the first, 24 RU for the second.

Compared with KFMHK [5mer-982], RDHWK [5mer-692] is higher in Binding affinity (RU): 12 RU for the first, 15 RU for the second.

Compared with KPNVK [5mer-682], RYDHK [5mer-978] is lower in Binding affinity (RU): 31 RU for the first, 30 RU for the second.

RFNIR [5mer-686] and KDTMR [5mer-681] are the same in Binding affinity (RU): 18 RU for the first, 18 RU for the second.

First: RCEHR [5mer-696]
Second: RCKWR [5mer-988]
The Binding affinity (RU) of the first is lower: 11 RU for the first, 17 RU for the second.

First: RPMDK [5mer-986]
Second: KEKFR [5mer-993]
The Binding affinity (RU) of the first is lower: 12 RU for the first, 27 RU for the second.

First: RMEIR [5mer-687]
Second: RNDIK [5mer-685]
The Binding affinity (RU) of the first is higher: 22 RU for the first, 21 RU for the second.

Going from KKPDR [5mer-695] to KEEPK [5mer-990], the Binding affinity (RU) falls from 26 RU to 12 RU.

First: RTMFR [5mer-676]
Second: RTTGR [5mer-983]
The Binding affinity (RU) of the first is lower: 18 RU for the first, 23 RU for the second.

Compared with KETHR [5mer-674], RKPHR [5mer-980] is higher in Binding affinity (RU): 22 RU for the first, 33 RU for the second.

First: KYAKR [5mer-972]
Second: RCEMR [5mer-677]
The Binding affinity (RU) of the first is lower: 14 RU for the first, 15 RU for the second.

First: KYMNR [5mer-970]
Second: KKTVK [5mer-679]
The Binding affinity (RU) of the first is higher: 33 RU for the first, 21 RU for the second.

With RETNR [5mer-976] the Binding affinity (RU) was 16 RU.

— US20250011363A1, “OPTIMIZED SHORTENED PEPTIDE THAT BINDS TO ACETYLCHOLINE RECEPTOR, AND USE THEREOF” (SKINMED CO., LTD., priority 2021, published 2025)
